Measurements published in patent US20220025060A1.
Read-outs that look alike come from different tables or passages of the source.

Tests used:
[1] = biological target: human CD40 on HEK-Blue CD40L cells (HEK293 cells stably transfected with human CD40 gene) (human) (UniProt P25942); test: HEK293-CD40 cell-binding (so in the source)
[2] = biological target: His-tagged human CD40 (h-CD40-his) recombinant protein (human) (UniProt P25942); test: ELISA, human CD40-his coated
[3] = biological target: His-tagged rhesus monkey CD40 (rhesus-CD40-his) recombinant protein (rhesus monkey) (UniProt F6SNI1); test: ELISA, Rhesus CD40-his coated
[4] = biological target: Fc-tagged human CD40 (h-CD40-Fc) recombinant protein (human) (UniProt P25942); test: hCD40/hCD40L blocking ELISA, competitor CD40L-his
[5] = biological target: His-tagged human CD40 (h-CD40-his) recombinant protein (human) (UniProt P25942); test: ELISA, human CD40-his coated; remark: listed apart in the source
[6] = biological target: His-tagged human CD40 (h-CD40-his) recombinant protein (human) (UniProt P25942); test: Biacore SPR, antibody captured by anti-human antibody, CD40 antigen as analyte, 1:1 model
[7] = biological target: human CD40 on HEK-Blue CD40L cells (HEK293 cells stably transfected with human CD40 gene) (human) (UniProt P25942); test: HEK293-CD40 cell-binding (so in the source); remark: listed apart in the source
[8] = biological target: Fc-tagged human CD40 (h-CD40-Fc) recombinant protein (human) (UniProt P25942); test: hCD40/hCD40L blocking ELISA, competitor CD40L-his; remark: listed apart in the source

Chain of Pfizer control (hIgG4) (antibody) (VH): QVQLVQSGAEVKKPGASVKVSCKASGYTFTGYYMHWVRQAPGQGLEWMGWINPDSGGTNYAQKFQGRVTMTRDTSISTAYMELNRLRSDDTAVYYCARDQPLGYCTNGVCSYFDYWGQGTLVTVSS
Chain of Pfizer control (hIgG4) (antibody) (VL): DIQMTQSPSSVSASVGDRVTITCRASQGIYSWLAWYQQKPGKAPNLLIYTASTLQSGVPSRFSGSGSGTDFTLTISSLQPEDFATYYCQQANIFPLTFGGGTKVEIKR
Chain of His-tagged human CD40 (h-CD40-his) recombinant protein (human) (P25942 21-193 limits assumed): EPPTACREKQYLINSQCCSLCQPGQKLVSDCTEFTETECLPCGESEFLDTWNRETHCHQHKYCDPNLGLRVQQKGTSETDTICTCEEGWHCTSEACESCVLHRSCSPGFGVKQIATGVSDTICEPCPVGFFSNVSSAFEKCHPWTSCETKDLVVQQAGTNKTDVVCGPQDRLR
Chain of human CD40 on HEK-Blue CD40L cells (HEK293 cells stably transfected with human CD40 gene) (human) (P25942 21-277): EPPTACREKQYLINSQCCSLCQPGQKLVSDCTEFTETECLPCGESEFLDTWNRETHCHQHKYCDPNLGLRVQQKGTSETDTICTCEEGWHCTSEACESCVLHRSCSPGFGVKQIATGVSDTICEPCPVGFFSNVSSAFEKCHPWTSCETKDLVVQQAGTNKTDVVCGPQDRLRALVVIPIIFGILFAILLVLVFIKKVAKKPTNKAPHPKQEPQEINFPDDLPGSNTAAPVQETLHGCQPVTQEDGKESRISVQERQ
Chain of Fc-tagged human CD40 (h-CD40-Fc) recombinant protein (human) (P25942 21-193 limits assumed): as the sequence (P25942 21-193 limits assumed) above

| EC50 [1] [ng/mL] | EC50 [2] [ng/mL] | EC50 [3] [ng/mL] | IC50 [4] [ng/mL] | EC50 [5] [ng/mL] | Kd [6] [µM] | EC50 [7] [ng/mL] | IC50 [8] [ng/mL] | Substance |
| --- | --- | --- | --- | --- | --- | --- | --- | --- |
| 1360 | 1.29 | 1.24 | 647 | 3.29 | 0.166 | 396 | 723 | Alligator control (hIgG1) (antibody) |
|  | 3.98 | 3.56 |  | 5.63 | 0.0204 |  |  | Pfizer control (hIgG4) (antibody) |
